Reference: IntAct's records for PubMed 29892012

B1: Coiled-coil domain-containing protein 120 (Homo sapiens), Q96HB5-4 (parent)
chain: MRREPRYQGQVGPDIHTDSERTLSSHQPRPLDSTKMEVKGQLISSPTFNAPAALFGEAAPQVKSERLRGLLDRQRTLQEALSLKLQELRKVCLQEAELTGQLPPECPLEPGERPQLVRRRPPTARAYPPPHPNQAHHSLCPAEELALEALEREVSVQQQIAAAARRLALAPDLSTEQRRRRRQVQADALRRLHELEEQLRDVRARLGLPVLPLPQPLPLSTGSVITTQGVCLGMRLAQLSQEDVVLHSESSSLSESGASHDNEEPHGCFSLAERPSPPKAWDQLRAVSGGSPERRTPWKPPPSDLYGDLKSRRNSVASPTSPTRSLPRSASSFEGRSVPATPVLTRGAGPQLCKPEGLHSRQWSGSQDSQMGFPRADPASDRASLFVARTRRSNSSEALLVDRAAGGGAGSPPAPLAPSASGPPVCKSSEVLYERPQPTPAFSSRTAGPPDPPRAARPSSAAPASRGAPRLPPVCGDFLLDYSLDRGLPRSGGGTGWGELPPAAEVPGPLSRRDGLLTMLPGPPPVYAADSNSPLLRTKDPHTRATRTKPCGLPPEAAEGPEVHPNPLLWMPPPTRIPSAGERSGHKNLALEGLRDWYIRNSGLAAGPQRRPVLPSVGPPHPPFLHARCYEVGQALYGAPSQAPLPHSRSFTAPPVSGRYYADFLYPPELSARLSDLTLEGEQSSSSDTQTPGTLV
partner: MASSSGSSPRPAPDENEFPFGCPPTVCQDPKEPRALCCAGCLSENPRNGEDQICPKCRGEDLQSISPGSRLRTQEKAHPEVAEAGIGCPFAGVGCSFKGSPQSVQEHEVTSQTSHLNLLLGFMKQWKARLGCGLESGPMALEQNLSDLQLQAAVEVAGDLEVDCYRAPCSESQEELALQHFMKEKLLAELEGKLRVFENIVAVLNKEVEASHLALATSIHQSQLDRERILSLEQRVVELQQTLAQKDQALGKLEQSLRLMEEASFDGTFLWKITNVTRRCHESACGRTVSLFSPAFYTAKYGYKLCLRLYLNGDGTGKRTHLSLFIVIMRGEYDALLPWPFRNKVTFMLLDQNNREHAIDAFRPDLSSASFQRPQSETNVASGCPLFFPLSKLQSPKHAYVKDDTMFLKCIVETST
B2: Protein VAC14 homolog (Homo sapiens), Q08AM6 (parent)
chain: MNPEKDFAPLTPNIVRALNDKLYEKRKVAALEIEKLVREFVAQNNTVQIKHVIQTLSQEFALSQHPHSRKGGLIGLAACSIALGKDSGLYLKELIEPVLTCFNDADSRLRYYACEALYNIVKVARGAVLPHFNVLFDGLSKLAADPDPNVKSGSELLDRLLKDIVTESNKFDLVSFIPLLRERIYSNNQYARQFIISWILVLESVPDINLLDYLPEILDGLFQILGDNGKEIRKMCEVVLGEFLKEIKKNPSSVKFAEMANILVIHCQTTDDLIQLTAMCWMREFIQLAGRVMLPYSSGILTAVLPCLAYDDRKKSIKEVANVCNQSLMKLVTPEDDELDELRPGQRQAEPTPDDALPKQEGTASGGPDGSCDSSFSSGISVFTAASTERAPVTLHLDGIVQVLNCHLSDTAIGMMTRIAVLKWLYHLYIKTPRKMFRHTDSLFPILLQTLSDESDEVILKDLEVLAEIASSPAGQTDDPGPLDGPDLQASHSELQVPTPGRAGLLNTSGTKGLECSPSTPTMNSYFYKFMINLLKRFSSERKLLEVRGPFIIRQLCLLLNAENIFHSMADILLREEDLKFASTMVHALNTILLTSTELFQLRNQLKDLKTLESQNLFCCLYRSWCHNPVTTVSLCFLTQNYRHAYDLIQKFGDLEVTVDFLAEVDKLVQLIECPIFTYLRLQLLDVKNNPYLIKALYGLLMLLPQSSAFQLLSHRLQCVPNPELLQTEDSLKAAPKSQKADSPSIDYAELLQHFEKVQNKHLEVRHQRSGRGDHLDRRVVL
partner: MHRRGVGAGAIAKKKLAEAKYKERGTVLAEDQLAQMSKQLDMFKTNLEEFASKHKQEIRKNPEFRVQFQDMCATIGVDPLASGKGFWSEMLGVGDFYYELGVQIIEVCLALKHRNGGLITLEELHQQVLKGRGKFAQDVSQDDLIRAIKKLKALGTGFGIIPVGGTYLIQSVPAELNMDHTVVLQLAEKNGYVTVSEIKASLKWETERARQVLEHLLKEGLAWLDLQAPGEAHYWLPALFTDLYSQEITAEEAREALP
B3: Ribosome assembly protein METTL17, mitochondrial (Homo sapiens), Q9H7H0 (parent)
chain: MAAALKCLLTLGRWCPGLGVAPQARALAALVPGVTQVDNKSGFLQKRPHRQHPGILKLPHVRLPQALANGAQLLLLGSAGPTMENQVQTLTSYLWSRHLPVEPEELQRRARHLEKKFLENPDLSQTEEKLRGAVLHALRKTTYHWQELSYTEGLSLVYMAARLDGGFAAVSRAFHEIRARNPAFQPQTLMDFGSGTGSVTWAAHSIWGQSLREYMCVDRSAAMLVLAEKLLKGGSESGEPYIPGVFFRQFLPVSPKVQFDVVVSAFSLSELPSKADRTEVVQTLWRKTGHFLVLVENGTKAGHSLLMDARDLVLKGKEKSPLDPRPGFVFAPCPHELPCPQLTNLACSFSQAYHPIPFSWNKKPKEEKFSMVILARGSPEEAHRWPRITQPVLKRPRHVHCHLCCPDGHMQHAVLTARRHGRDLYRCARVSSWGDLLPVLTPSAFPPSTAQDPSES
partner: B1 partner
B4: Palmitoyltransferase ZDHHC22 (Homo sapiens), Q8N966 (parent)
chain: MLALRLLNVVAPAYFLCISLVTFVLQLFLFLPSMREDPAAARLFSPALLHGALFLFLSANALGNYVLVIQNSPDDLGACQGASARKTPCPSPSTHFCRVCARVTLRHDHHCFFTGNCIGSRNMRNFVLFCLYTSLACLYSMVAGVAYISAVLSISFAHPLAFLTLLPTSISQFFSGAVLGSEMFVILMLYLWFAIGLACAGFCCHQLLLILRGQTRHQVRKGVAVRARPWRKNLQEVFGKRWLLGLLVPMFNVGSESSKQQDK
partner: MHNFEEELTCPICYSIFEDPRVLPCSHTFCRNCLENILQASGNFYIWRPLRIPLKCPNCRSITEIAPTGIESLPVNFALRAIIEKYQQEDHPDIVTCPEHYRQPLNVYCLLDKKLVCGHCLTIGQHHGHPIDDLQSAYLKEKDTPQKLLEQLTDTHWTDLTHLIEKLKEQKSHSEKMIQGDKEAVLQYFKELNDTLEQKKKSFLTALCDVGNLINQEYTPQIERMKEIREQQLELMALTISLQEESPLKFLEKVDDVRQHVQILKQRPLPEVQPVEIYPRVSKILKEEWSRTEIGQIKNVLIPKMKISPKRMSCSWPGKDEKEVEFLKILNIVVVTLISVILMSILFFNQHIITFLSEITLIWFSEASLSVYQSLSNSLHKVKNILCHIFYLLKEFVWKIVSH
B5: Ribosome assembly protein METTL17, mitochondrial (Homo sapiens), Q9H7H0 (parent)
chain: B3 chain
partner: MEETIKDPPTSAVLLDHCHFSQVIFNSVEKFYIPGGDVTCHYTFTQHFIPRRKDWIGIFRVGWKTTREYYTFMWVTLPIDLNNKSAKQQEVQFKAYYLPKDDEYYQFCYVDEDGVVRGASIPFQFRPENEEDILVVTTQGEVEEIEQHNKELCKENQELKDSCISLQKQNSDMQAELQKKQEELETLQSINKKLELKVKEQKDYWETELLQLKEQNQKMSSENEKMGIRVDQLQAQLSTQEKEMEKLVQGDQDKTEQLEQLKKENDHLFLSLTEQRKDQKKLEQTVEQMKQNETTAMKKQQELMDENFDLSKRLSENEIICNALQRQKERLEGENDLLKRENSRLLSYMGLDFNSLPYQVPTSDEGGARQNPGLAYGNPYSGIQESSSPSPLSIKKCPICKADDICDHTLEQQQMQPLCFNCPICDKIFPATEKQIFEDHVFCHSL

Variants of: B1
Conditions: with traf1_human TRAF1, Q13077

Variant | effect of a mutation on the interaction
R346W | with no effect

Variants of: B2
Conditions: with snf8_human SNF8, Q96H20

Variant | effect of a mutation on the interaction
A127S | with no effect

Variants of: B3
Conditions: with traf1_human TRAF1, Q13077

Variant | effect of a mutation on the interaction
R212H | with no effect

Variants of: B4
Conditions: with tri59_human TRIM59, Q8IWR1

Variant | effect of a mutation on the interaction
L209F | with no effect

Variants of: B5
Conditions: with caco2_human CALCOCO2, Q13137

Variant | effect of a mutation on the interaction
R212H | disrupting interaction strength
